The supplement of paper PMC9112550, “Optimization of the antimicrobial peptide Bac7 by deep mutational scanning” (BMC Biology, 2022)

Tested on: Escherichia coli TOP10
Assay: shrunken log2 fold change of peptide-encoding DNA abundance (4.5 h post-induction vs induction); higher = less antimicrobial activity (less host growth inhibition)
Conditions: time post-induction: 4.5 h; library: site-saturation at positions 5, 18, 19, 20
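Note: peptides expressed intracellularly from a pBAD plasmid library in pooled LB shake-flask culture, induced with 0.3% L-arabinose, DNA abundance read by NGS, three biological replicates, DESeq2 with apeglm shrinkage.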

Sequence	shrunken log2 fold change
RRIRRRPPRLPRPRPRPNPYPRP	-0.0616
RRIRNRPPRLPRPRPRPCPVPRP	-0.438
RRIRTRPPRLPRPRPRPAEYPRP	-0.162
RRIRPRPPRLPRPRPRPLIWPRP	0.0601
RRIRARPPRLPRPRPRPIKDPRP	0.0786
RRIRFRPPRLPRPRPRPSNHPRP	-0.681
RRIRVRPPRLPRPRPRPYRLPRP	0.0399
RRIRPRPPRLPRPRPRPALNPRP	0.0983
RRIRARPPRLPRPRPRPQSLPRP	0.026
RRIRTRPPRLPRPRPRPGLWPRP	0.521
RRIRPRPPRLPRPRPRPRMPPRP	0.249
RRIRPRPPRLPRPRPRPMSHPRP	0.0914
RRIRARPPRLPRPRPRPTYIPRP	-0.438
RRIRMRPPRLPRPRPRPLICPRP	0.108
RRIRNRPPRLPRPRPRPQGMPRP	-0.0261
RRIRARPPRLPRPRPRPNWPPRP	0.0205
RRIRRRPPRLPRPRPRPADYPRP	-0.0547
RRIRCRPPRLPRPRPRPSMNPRP	-0.757
RRIRHRPPRLPRPRPRPHTNPRP	-0.672
RRIRFRPPRLPRPRPRPAKCPRP	-0.00691
RRIRSRPPRLPRPRPRPVQKPRP	0.178
RRIRGRPPRLPRPRPRPMNQPRP	0.0945
RRIRFRPPRLPRPRPRPHACPRP	-0.867
RRIRRRPPRLPRPRPRPEATPRP	2.74
RRIRQRPPRLPRPRPRPMNYPRP	-0.182

Sequence	shrunken log2 fold change
RRIRFRPPRLPRPRPRPWDPPRP	-0.78
RRIRLRPPRLPRPRPRPWSWPRP	0.0711
RRIRDRPPRLPRPRPRPGFMPRP	0.219
RRIRLRPPRLPRPRPRPGHNPRP	-0.371
RRIRTRPPRLPRPRPRPVVKPRP	-0.189
RRIRHRPPRLPRPRPRPFGSPRP	-0.0134
RRIRNRPPRLPRPRPRPGAQPRP	0.0369
RRIRKRPPRLPRPRPRPMMHPRP	0.0869
RRIRTRPPRLPRPRPRPHHLPRP	0.0331
RRIRHRPPRLPRPRPRPAIWPRP	0.137
RRIRHRPPRLPRPRPRPNCAPRP	0.0721
RRIRYRPPRLPRPRPRPKYKPRP	-0.78
RRIRHRPPRLPRPRPRPSLFPRP	-0.625
RRIRGRPPRLPRPRPRPVCYPRP	0.833
RRIRIRPPRLPRPRPRPIKAPRP	-0.38
RRIRGRPPRLPRPRPRPLSHPRP	0.557
RRIRKRPPRLPRPRPRPKTHPRP	0.4
RRIRWRPPRLPRPRPRPCKEPRP	-0.125
RRIRVRPPRLPRPRPRPMYFPRP	-0.569
RRIRWRPPRLPRPRPRPIRIPRP	-0.324
RRIRKRPPRLPRPRPRPAKDPRP	0.247
RRIRNRPPRLPRPRPRPEFSPRP	0.0268
RRIRFRPPRLPRPRPRPQNPPRP	-0.231
RRIRIRPPRLPRPRPRPCYTPRP	-0.128
RRIRRRPPRLPRPRPRPPIPPRP	0.271

Sequence	shrunken log2 fold change
RRIRCRPPRLPRPRPRPFAFPRP	-0.169
RRIRERPPRLPRPRPRPHNDPRP	-0.335
RRIRVRPPRLPRPRPRPPKKPRP	0.167
RRIRERPPRLPRPRPRPHSHPRP	-0.269
RRIRCRPPRLPRPRPRPNMCPRP	-0.222
RRIRTRPPRLPRPRPRPMYTPRP	-0.156
RRIRNRPPRLPRPRPRPAHGPRP	0.047
RRIRPRPPRLPRPRPRPNLKPRP	-0.0156
RRIRRRPPRLPRPRPRPIVEPRP	0.136
RRIRDRPPRLPRPRPRPMFKPRP	-0.767
RRIRMRPPRLPRPRPRPNTHPRP	0.136
RRIRQRPPRLPRPRPRPRCRPRP	0.0135
RRIRDRPPRLPRPRPRPNCSPRP	0.271
RRIRNRPPRLPRPRPRPVNSPRP	0.0303
RRIRNRPPRLPRPRPRPSWGPRP	-0.139
RRIRQRPPRLPRPRPRPFCAPRP	0.184
RRIRARPPRLPRPRPRPMFGPRP	0.215
RRIRNRPPRLPRPRPRPNANPRP	-0.199
RRIRARPPRLPRPRPRPYECPRP	-0.327
RRIRTRPPRLPRPRPRPTNDPRP	-0.547
RRIRIRPPRLPRPRPRPPSAPRP	0.369
RRIRGRPPRLPRPRPRPRVRPRP	0.789
RRIRQRPPRLPRPRPRPHTWPRP	-0.206
RRIRGRPPRLPRPRPRPWHNPRP	-0.145
RRIRIRPPRLPRPRPRPWQFPRP	-0.243
